B2: cYFP-BPM1 (other, Arabidopsis, UniProt Q8L765 1-407, looked up)
chain: MGTTRVCSEVSSGSSKSLSQSLTVSTSTTETVNGFHEFKICGYSLAKGVGVGKYVASDTFMVGGYSWAIYFYPDGKSPEDNSSYVSLFIALASEGADVRALFELTLVDQSGNGKHKVHSHFGRALDSGPYTLKYRGSMWGYKRFFRRSSLESSDYLKENSLLVRCRVGVVKSVTEGPRYYNIPVPVSNLGQQLGNLLESGKGCDVVFQVDGETFNAHKLVLATRSPVFNAQLFGPLGDRNTKCITIEDMEAPIFKVLLHFIYWDELPDMQELIGTDSTLASTLVAQHLLAAADRYALERLKAICESKLCEGVAINTVATTLALAEQHHCLQLKAVCLKFVALPENLKAVMQTDGFDYLKESCPSLLTELLQYVARLSEHSVIVSGHRKEIFADGCDASGRRVKPRLH
notes: BiFC construct transiently produced in N. benthamiana leaves; also called 35S:cYFP-BPM1; BTB/POZ and MATH domain-containing (BPM) 1; not shown: C-terminal half of YFP from the BiFC vector

Tests used:
[1] = target: T1, BPM1 (yeast two-hybrid) (Arabidopsis, UniProt Q8L765 1-407); assay: yeast two-hybrid
T1 construct: also called E3 ligase bridge protein BPM1; E3 ligase linker BPM protein; not shown: Y2H fusion partner
T1 sequence (looked up): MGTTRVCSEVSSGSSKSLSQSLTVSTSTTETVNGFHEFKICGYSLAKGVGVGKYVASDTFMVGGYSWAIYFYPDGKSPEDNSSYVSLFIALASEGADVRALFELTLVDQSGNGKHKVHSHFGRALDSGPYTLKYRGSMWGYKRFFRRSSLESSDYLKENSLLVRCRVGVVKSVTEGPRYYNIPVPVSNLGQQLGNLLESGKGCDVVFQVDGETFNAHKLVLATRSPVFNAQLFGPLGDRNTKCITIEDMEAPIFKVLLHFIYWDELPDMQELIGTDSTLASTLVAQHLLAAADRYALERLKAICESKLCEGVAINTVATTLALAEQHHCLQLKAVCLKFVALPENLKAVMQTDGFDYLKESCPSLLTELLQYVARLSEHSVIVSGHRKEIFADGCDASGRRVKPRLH

[2] = target: T2, nYFP-AtWRI1 (Arabidopsis thaliana, UniProt Q6X5Y6 1-430); assay: BiFC, transient expression in N. benthamiana leaves
T2 construct: BiFC construct transiently produced in N. benthamiana leaves; also called 35S:nYFP-AtWRI1; not shown: N-terminal half of YFP from the BiFC vector
T2 sequence: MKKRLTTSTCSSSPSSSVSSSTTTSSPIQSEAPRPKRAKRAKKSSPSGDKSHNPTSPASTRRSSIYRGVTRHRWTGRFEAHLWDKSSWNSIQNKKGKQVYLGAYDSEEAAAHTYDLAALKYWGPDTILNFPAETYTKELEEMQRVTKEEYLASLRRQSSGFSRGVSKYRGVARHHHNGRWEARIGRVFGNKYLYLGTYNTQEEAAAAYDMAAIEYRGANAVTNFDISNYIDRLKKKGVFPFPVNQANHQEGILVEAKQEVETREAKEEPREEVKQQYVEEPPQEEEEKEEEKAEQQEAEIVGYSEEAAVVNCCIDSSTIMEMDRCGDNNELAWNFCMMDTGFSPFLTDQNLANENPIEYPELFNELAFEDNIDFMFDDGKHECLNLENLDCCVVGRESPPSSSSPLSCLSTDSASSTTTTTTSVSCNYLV
Excerpt: (§1) Confocal microscopy and bimolecular fluorescence complementation (BiFC) assays used 35S:YFP-AtWRI1 (including truncated AtWRI1 variants and AtWRI1 site-directed mutants fused to yellow fluorescent protein (YFP)) were generated through GATEWAY system. For BiFC experiments, 35S:nYFP-AtWRI1 (including truncated AtWRI1 variants) and 35S:cYFP-BPM1 were similarly assembled. Constructs were transformed into A. tumefaciens (GV3101 strain). For BiFC experiments to test protein-protein interaction, A. tumefaciens harboring each nYFP and cYFP fusion construct was prepared (each culture was re-suspended to 1.2 OD₆₀₀ in MMA buffer) and adjusted to 0.4 OD₆₀₀ prior to injection into plant leaves. Healthy leaves of N. benthamiana plants were infiltrated by bacterial suspensions with a 1-mL blunt-end syringe. Plants were returned to growth chambers and YFP fluorescence signals were captured by a confocal microscope 2 to 3 d after bacterial infiltration. YFP fluorescence signal intensity was analyzed using ImageJ software.
(§2) A bimolecular fluorescence complementation (BiFC) assay was used to investigate the interaction between AtWRI1 and a BPM protein (BPM1). AtWRI1 and BPM1 were subcloned to BiFC vectors which generated nYFP-AtWRI1 and cYFP-BPM1 (half N-terminus of YFP and half C-terminus of YFP, respectively). […]

[3] = target: T1, BPM1 (yeast two-hybrid); assay: yeast two-hybrid with truncated AtWRI1 variants
[4] = target: T3, full length AtWRI1 (bait fusion, yeast two-hybrid) (Arabidopsis thaliana, UniProt Q6X5Y6 1-430); assay: yeast two-hybrid
T3 construct: Transcription factor expressed in yeast as bait fusion; also called Arabidopsis thaliana WRINKLED1; not shown: bait fusion partner of the Y2H vector
T3 sequence: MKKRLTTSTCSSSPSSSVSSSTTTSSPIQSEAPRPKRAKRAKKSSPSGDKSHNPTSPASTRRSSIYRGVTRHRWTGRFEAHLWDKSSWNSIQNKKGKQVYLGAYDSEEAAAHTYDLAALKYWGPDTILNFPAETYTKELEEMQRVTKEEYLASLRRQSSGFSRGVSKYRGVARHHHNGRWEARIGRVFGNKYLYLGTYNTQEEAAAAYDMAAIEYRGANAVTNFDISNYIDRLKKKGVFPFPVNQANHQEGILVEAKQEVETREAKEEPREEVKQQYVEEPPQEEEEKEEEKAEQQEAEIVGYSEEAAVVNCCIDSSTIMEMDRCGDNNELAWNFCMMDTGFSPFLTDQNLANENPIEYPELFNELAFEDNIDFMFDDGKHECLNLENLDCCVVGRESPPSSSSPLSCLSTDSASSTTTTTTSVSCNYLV

[5] = target: B2; assay: BiFC, transient expression in N. benthamiana leaves
Excerpt: as §1, §2

B1: AtWRI1^1-77 (yeast two-hybrid) (other)
chain: MKKRLTTSTCSSSPSSSVSSSTTTSSPIQSEAPRPKRAKRAKKSSPSGDKSHNPTSPASTRRSSIYRGVTRHRWTGR
notes: Truncated AtWRI1 variant; not shown: Y2H fusion partner
Does B1 bind [1]?
Result: no binding

Does B2 bind [2]?
Result: binds

B3: AtWRI1^1-92 (yeast two-hybrid) (other)
chain: MKKRLTTSTCSSSPSSSVSSSTTTSSPIQSEAPRPKRAKRAKKSSPSGDKSHNPTSPASTRRSSIYRGVTRHRWTGRFEAHLWDKSSWNSIQ
notes: as for B1
Does B3 bind [3]?
Result: binds

B4: 14-3-3ν (yeast two-hybrid) (other, Arabidopsis, UniProt Q96300 1-265, looked up)
chain: MSSSREENVYLAKLAEQAERYEEMVEFMEKVAKTVDTDELTVEERNLLSVAYKNVIGARRASWRIISSIEQKEESRGNDDHVSIIKDYRGKIETELSKICDGILNLLDSHLVPTASLAESKVFYLKMKGDYHRYLAEFKTGAERKEAAESTLVAYKSAQDIALADLAPTHPIRLGLALNFSVFYYEILNSPDRACSLAKQAFDEAISELDTLGEESYKDSTLIMQLLRDNLTLWNSDINDEAGGDEIKEASKHEPEEGKPAETGQ
notes: also called 14-3-3 nu; not shown: Y2H fusion partner
Does B4 bind [4]?
Result: binds

B5: nYFP-AtWRI1^1-366 (other)
chain: MKKRLTTSTCSSSPSSSVSSSTTTSSPIQSEAPRPKRAKRAKKSSPSGDKSHNPTSPASTRRSSIYRGVTRHRWTGRFEAHLWDKSSWNSIQNKKGKQVYLGAYDSEEAAAHTYDLAALKYWGPDTILNFPAETYTKELEEMQRVTKEEYLASLRRQSSGFSRGVSKYRGVARHHHNGRWEARIGRVFGNKYLYLGTYNTQEEAAAAYDMAAIEYRGANAVTNFDISNYIDRLKKKGVFPFPVNQANHQEGILVEAKQEVETREAKEEPREEVKQQYVEEPPQEEEEKEEEKAEQQEAEIVGYSEEAAVVNCCIDSSTIMEMDRCGDNNELAWNFCMMDTGFSPFLTDQNLANENPIEYPELFNEL
notes: also called AtWRI1^Δ367-430; not shown: N-terminal half of YFP from the BiFC vector
Does B5 bind [5]?
Result: binds
